{"source": "paper PMC9499114", "about": "“The Magnetosome Protein, Mms6 from Magnetospirillum magneticum Strain AMB-1, Is a Lipid-Activated Ferric Reductase” (International Journal of Molecular Sciences, 2022)", "key": {"[1]": {"substrate": "NC(=O)C1=CN([C@@H]2O[C@H](COP(=O)(O)OP(=O)(O)OC[C@H]3O[C@@H](n4cnc5c(N)ncnc54)[C@H](O)[C@@H]3O)[C@@H](O)[C@H]2O)C=CC1", "test": "ferrozine A562 ferric reductase assay", "assay_type": "biochemical, Paramagnetospirillum magneticum", "settings": "stimulation of ferric reductase activity, electron donor, FAD and ferric citrate present, pH 7.5"}, "[2]": {"substrate": "Cc1cc2nc3c(=O)[nH]c(=O)nc-3n(C[C@H](O)[C@H](O)[C@H](O)COP(=O)(O)OP(=O)(O)OC[C@H]3O[C@@H](n4cnc5c(N)ncnc54)[C@H](O)[C@@H]3O)c2cc1C", "test": "ferrozine A562 ferric reductase assay", "assay_type": "biochemical, Paramagnetospirillum magneticum", "settings": "stimulation of ferric reductase activity, co-substrates NADH and ferric citrate, pH 7.5, varied: cofactor"}}}
{"protein": "Mms6 (Paramagnetospirillum magneticum AMB-1) (protein, micelles of about 13-15 nm) VGGTIWTGKGLGLGLGLGLGAWGPIILGVVGAGAVYAYMKSRDIESAQSDEEVELRDALA", "values": [{"measurement": "Km", "setting": "[1]", "result": 15, "unit": "µM"}, {"measurement": "Km", "setting": "[2]", "result": 25, "unit": "µM"}]}
